Measurements: patent US20240390468A1 (IMMUNOVACCINE TECHNOLOGIES, published 2024)

Legend:
[1] = target: T1, MHC class 1 allele A*02:01; test: REVEAL kinetic score, HLA-A*02:01
T1 construct: also called HLA-A2; HLA-A*02:01

[2] = target: T1, MHC class 1 allele A*02:01; test: REVEAL on-rate assay, HLA-A*02:01
[3] = target: T1, MHC class 1 allele A*02:01; test: REVEAL peptide-MHC binding assay, HLA-A*02:01
[4] = target: T1, MHC class 1 allele A*02:01; test: REVEAL R-score, HLA-A*02:01
[5] = target: T1, MHC class 1 allele A*02:01; test: REVEAL off-rate assay, HLA-A*02:01

LMLGEFLKL [SurA2.M (survivin peptide antigen HLA-A2, LMLGEFLKL)] was tested, and the Kinetic score [1] was 12.8, the “On-rate T1/2” value [2] was 9.36 h and the REVEAL score [3] was 172. For the same binder, the R-score [4] was 22.1 and the “Off-rate T1/2” value [5] was > 120 h.

With KVAELVHFL (also called p111) [MAGE-A9 111 (MAGE-A9 peptide antigen 111, KVAELVHFL)] the Kinetic score [1] was 12.6, the “On-rate T1/2” value [2] was 9.52 h and the REVEAL score [3] was 166. For the same binder, the R-score [4] was 20.9 and the “Off-rate T1/2” value [5] was > 120 h.

For ALSVMGVYV (also called p223; M9-A2-223) [MAGE-A9 223 (MAGE-A9 peptide antigen 223, ALSVMGVYV)], the Kinetic score [1] was 13.1, the “On-rate T1/2” value [2] was 9.17 h and the REVEAL score [3] was 199. The R-score [4] was 26 and the “Off-rate T1/2” value [5] was > 120 h.

With FLWGSKAHA (also called p270; M9-A2-270) [MAGE-A9 270 (MAGE-A9 peptide antigen 270, FLWGSKAHA)] the Kinetic score [1] was 12.7, the “On-rate T1/2” value [2] was 9.43 h and the REVEAL score [3] was 173. The R-score [4] was 22.1 and the “Off-rate T1/2” value [5] was > 120 h.
